According to patent US20200157223A1:

What follows are substances tested against CD47 on the cell surface (A431, Raji, SKBR-3, NCI-H441, NK92MI-CD16a cells) (human) (UniProt Q08722) (assay: cell-based or functional assay).

Anti-PD-L1(12A4)-Fc1-D1-Fc2 (bispecific antibody), sequence (chain): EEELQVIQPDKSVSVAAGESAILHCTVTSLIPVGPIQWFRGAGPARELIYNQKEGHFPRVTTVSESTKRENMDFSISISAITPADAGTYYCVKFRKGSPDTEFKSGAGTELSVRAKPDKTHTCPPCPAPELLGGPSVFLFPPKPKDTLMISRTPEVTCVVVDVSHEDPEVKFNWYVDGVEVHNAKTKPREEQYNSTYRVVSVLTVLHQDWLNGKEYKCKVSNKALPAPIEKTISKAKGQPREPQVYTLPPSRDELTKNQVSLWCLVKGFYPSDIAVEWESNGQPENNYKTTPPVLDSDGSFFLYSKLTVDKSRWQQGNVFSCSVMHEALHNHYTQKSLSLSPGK
Anti-PD-L1(12A4)-Fc1-D1-D2-D3-Fc2 (bispecific antibody), sequence (chain): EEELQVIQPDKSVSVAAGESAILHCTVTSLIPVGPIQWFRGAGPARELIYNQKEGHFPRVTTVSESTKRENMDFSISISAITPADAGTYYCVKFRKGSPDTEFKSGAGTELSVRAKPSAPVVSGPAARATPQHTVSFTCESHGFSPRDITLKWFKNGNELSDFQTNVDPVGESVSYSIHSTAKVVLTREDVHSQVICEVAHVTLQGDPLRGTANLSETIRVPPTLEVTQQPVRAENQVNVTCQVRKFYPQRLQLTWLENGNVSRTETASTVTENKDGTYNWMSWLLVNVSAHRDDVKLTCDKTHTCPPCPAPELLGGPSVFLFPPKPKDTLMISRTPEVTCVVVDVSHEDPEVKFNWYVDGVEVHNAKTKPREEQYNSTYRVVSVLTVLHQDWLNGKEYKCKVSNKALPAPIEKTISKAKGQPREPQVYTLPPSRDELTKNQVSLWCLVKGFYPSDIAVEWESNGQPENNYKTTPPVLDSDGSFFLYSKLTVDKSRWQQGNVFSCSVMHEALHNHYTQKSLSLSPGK
Anti-PD-L1(12A4)-Fc1-D1-D2-Fc2 (bispecific antibody), sequence (chain): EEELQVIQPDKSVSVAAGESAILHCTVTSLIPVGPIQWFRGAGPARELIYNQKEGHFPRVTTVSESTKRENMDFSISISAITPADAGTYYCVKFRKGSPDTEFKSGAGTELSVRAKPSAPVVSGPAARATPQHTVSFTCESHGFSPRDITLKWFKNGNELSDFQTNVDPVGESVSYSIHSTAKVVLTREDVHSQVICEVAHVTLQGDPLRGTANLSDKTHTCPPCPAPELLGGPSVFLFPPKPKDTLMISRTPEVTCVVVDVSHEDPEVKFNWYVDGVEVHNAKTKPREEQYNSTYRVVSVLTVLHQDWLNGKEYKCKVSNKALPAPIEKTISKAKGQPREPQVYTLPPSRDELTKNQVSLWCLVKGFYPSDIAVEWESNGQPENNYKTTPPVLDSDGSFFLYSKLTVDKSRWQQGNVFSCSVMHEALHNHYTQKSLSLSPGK

**Q.** Which toxic side effects caused by NK cells (ADCC on NK92MI-CD16a cells), reduction against the D1^m proteins does the source give for “Anti-PD-L1(12A4)-Fc1-D1-D2-Fc2 (bispecific antibody)” here?
**A.** The toxic side effects caused by NK cells (ADCC on NK92MI-CD16a cells), reduction against the D1^m proteins was over 1000 fold.

**Q.** For “Anti-PD-L1(12A4)-Fc1-D1-Fc2 (bispecific antibody)”, which toxic side effects caused by NK cells (ADCC on NK92MI-CD16a cells), reduction against the D1^m proteins is on record?
**A.** Its toxic side effects caused by NK cells (ADCC on NK92MI-CD16a cells), reduction against the D1^m proteins is over 1000 fold.

**Q.** How did the toxic side effects caused by NK cells (ADCC on NK92MI-CD16a cells), reduction against the D1^m proteins turn out when “Anti-PD-L1(12A4)-Fc1-D1-D2-D3-Fc2 (bispecific antibody)” was run?
**A.** The toxic side effects caused by NK cells (ADCC on NK92MI-CD16a cells), reduction against the D1^m proteins was over 1000 fold.
